Numbering of substitutions follows the chain as printed.
Assays:
[1] = target: T1, myc epitope-tagged RNF31 Q584H (human, UniProt Q96EP0-1 1-1072, Q584H); assay: co-IP
T1 sequence (looked up): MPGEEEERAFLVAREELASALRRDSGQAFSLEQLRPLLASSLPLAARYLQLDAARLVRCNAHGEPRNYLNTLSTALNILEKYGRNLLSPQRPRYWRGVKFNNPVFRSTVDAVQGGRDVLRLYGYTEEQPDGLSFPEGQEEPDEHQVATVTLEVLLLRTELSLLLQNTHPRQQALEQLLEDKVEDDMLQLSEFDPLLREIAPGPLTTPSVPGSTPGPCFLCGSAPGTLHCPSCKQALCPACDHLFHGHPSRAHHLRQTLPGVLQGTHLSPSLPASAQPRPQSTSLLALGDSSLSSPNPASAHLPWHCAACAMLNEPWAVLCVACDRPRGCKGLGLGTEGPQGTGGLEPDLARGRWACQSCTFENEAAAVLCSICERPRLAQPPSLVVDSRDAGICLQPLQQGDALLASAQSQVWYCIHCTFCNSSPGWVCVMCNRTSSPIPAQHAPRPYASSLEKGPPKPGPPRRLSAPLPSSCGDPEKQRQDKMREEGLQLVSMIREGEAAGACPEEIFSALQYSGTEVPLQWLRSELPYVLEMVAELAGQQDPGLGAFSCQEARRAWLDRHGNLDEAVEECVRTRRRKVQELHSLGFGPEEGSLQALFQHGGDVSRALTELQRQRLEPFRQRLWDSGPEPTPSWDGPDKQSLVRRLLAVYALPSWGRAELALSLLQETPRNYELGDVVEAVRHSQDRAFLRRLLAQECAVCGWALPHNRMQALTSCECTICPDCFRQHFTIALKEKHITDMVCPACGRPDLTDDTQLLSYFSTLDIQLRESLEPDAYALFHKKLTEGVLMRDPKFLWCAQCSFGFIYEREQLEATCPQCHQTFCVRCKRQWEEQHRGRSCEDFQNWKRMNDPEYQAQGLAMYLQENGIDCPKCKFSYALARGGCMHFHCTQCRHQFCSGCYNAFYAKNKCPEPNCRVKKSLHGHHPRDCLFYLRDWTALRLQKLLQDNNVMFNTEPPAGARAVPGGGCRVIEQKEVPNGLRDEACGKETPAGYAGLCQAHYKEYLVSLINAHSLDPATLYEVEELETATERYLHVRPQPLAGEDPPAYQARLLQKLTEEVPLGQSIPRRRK

[2] = target: T2, myc epitope-tagged RNF31 Q622L (human, UniProt Q96EP0-1 1-1072, Q622L); assay: co-IP
T2 sequence (looked up): T1 sequence (looked up) with H584Q, Q622L

fold co-immunoprecipitation relative to wild type RNF31 [1]: 1.4 fold | fold co-immunoprecipitation relative to wild type RNF31 [2]: 2.07 fold
B1: RBCK1 (natural protein, human (endogenous in HBL1), UniProt Q9BYM8-1 1-510, looked up)
chain: MDEKTKKAEEMALSLTRAVAGGDEQVAMKCAIWLAEQRVPLSVQLKPEVSPTQDIRLWVSVEDAQMHTVTIWLTVRPDMTVASLKDMVFLDYGFPPVLQQWVIGQRLARDQETLHSHGVRQNGDSAYLYLLSARNTSLNPQELQRERQLRMLEDLGFKDLTLQPRGPLEPGPPKPGVPQEPGRGQPDAVPEPPPVGWQCPGCTFINKPTRPGCEMCCRARPEAYQVPASYQPDEEERARLAGEEEALRQYQQRKQQQQEGNYLQHVQLDQRSLVLNTEPAECPVCYSVLAPGEAVVLRECLHTFCRECLQGTIRNSQEAEVSCPFIDNTYSCSGKLLEREIKALLTPEDYQRFLDLGISIAENRSAFSYHCKTPDCKGWCFFEDDVNEFTCPVCFHVNCLLCKAIHEQMNCKEYQEDLALRAQNDVAARQTTEMLKVMLQQGEAMRCPQCQIVVQKKDGCDWIRCTVCHTEICWVTKGPRWGPGGPGDTSGGCRCRVNGIPCHPSCQNCH

— article PMC3992927 (Cancer discovery, 2014)
